This data set has as its target T1, ICBP-59 (Homo sapiens, UniProt Q96T88 SEQ:263-793).
T1 chain: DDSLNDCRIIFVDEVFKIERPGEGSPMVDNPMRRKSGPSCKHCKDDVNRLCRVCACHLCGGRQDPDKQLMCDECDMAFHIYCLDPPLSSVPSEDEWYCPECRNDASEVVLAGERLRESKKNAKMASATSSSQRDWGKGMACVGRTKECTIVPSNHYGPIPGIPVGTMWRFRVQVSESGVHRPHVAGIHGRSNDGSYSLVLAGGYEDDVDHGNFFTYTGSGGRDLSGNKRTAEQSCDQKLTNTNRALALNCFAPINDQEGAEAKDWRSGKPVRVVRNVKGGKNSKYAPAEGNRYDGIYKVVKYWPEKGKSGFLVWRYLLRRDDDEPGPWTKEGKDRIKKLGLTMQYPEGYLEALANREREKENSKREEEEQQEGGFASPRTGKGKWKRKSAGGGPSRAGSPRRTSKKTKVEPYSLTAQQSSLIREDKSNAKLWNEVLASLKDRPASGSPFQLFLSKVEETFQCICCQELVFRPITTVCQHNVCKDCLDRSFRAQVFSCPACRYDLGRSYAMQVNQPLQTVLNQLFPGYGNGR
Kind of data set: EMSA; 12 mM HEPES-NaOH pH 7.9, 60 mM KCl, 4 mM Tris-HCl, 12% glycerol, poly(dI/dC), room temperature. Particulars: tags: GST fusion (pGEX-4T-1), GST cleaved with thrombin; label: 32P; cohesive EcoRI/XbaI ends. The protocol: The ICBP-59 protein (1 μg) was incubated with 1 ng of oligonucleotide and labelled at its terminal end by phosphorous ³²P in 12% glycerol, 12 mM HEPES-NaOH (pH 7.9), 60 mM KCl, 4 mM Tris-HCl (pH 7.9), 100 ng BSA, 0.6 mM DTT, and 100 ng poly(dI/dC) in 20 μl (Inouye et al., 1994). After a 30-minutes incubation at room temperature, the reaction mix was loaded in 6% polyacrylamide gels. In competition experiments, the quantity indicated of non-labelled oligonucleotides were added to the reaction mix 10 minutes before the addition of proteins. To examine the binding properties of ICBP90 with regard to the ICB2 box, we used the same protocol except that labelled oligonucleotide contained only one copy of the CCAAT sequence as described below: […]
Background: In EMSA bound probe runs differently from free probe, usually more slowly.

B1: ICB2X3 (dsDNA)
DNA 1: AATTCGATTGGTTCTGATTGGTTCTGATTGGTTCTT
DNA 2: CTAGAAGAACCAATCAGAACCAATCAGAACCAATCG
B1: the binding result is recorded as “binds”.

The values are drawn from patent US20060281125, “ICBP90 polypeptide and its fragments and polynucleotides coding for said polypeptides and applications for diagnosing and treating cancer” (Institut National de la Sante et de la Recherche Medicale, published 2006).
